Patent US20190127457A1

target: human neonatal Fc-receptor (FcRn) (human) (UniProt P55899); experiment: FcRn affinity chromatography

| RT [min] (retention time on the FcRn affinity column) | FcRn-affinity column retention time | Substance |
| --- | --- | --- |
| 0 min | – | bispecific antibody (knobs-into-holes), first chain with I253A/H310A/H435A and second chain with H435A |
| – | 41.3 min | IgG1 Fc-region with L234A/L235A/P329G and Y436A (symmetric) |
| 0 min | – | bispecific antibody (knobs-into-holes), first chain with I253A/H310A/H435A and second chain with I253A/H310A/H435A |
| 0 min | – | bispecific antibody (knobs-into-holes), first chain with I253A/H310A/H435A and second chain with H310A |

target: human neonatal Fc-receptor (FcRn) (human) (UniProt P55899); experiment: FcRn affinity chromatography, symmetrically modified anti-HER2 antibody

| retention time | Substance |
| --- | --- |
| 45.6 min | anti-HER2 antibody, E258H (symmetric) |
| 45.5 min | anti-HER2 antibody, L309H (symmetric) |
| 52 min | anti-HER2 antibody, N434H (symmetric) |
| 41.4 min | anti-HER2 antibody, R255D (symmetric) |
| 45.2 min | anti-HER2 antibody, K288E (symmetric) |
| 46.2 min | anti-HER2 antibody, K290H (symmetric) |
